The values below come from the RNAGym collection of RNA variant scans (doi:10.7554/elife.80360).

B1: CPEB3 Ribozyme (parent)
chain: GGGGGCCACAGCAGAAGCGUUCACGUCGCGGCCCCUGUCAGAUUCUGGUGAAUCUGCGAAUUCUGCUGU

The data set covers variants of B1. Briefly: self-cleavage, relative activity (ratio to wild type); higher = more cleavage; co-transcriptional.
Regarding G1C G2A, the self-cleavage was found to be 0.408.

With G1U C45U, the self-cleavage turned out to be 0.152.

For the variant G1U C45G, the self-cleavage came out at 0.134.

Regarding G1C C6A, the self-cleavage was determined as 0.26.

Take G1C C6G: the self-cleavage stood at 0.658.

For the variant G1C C6U, the self-cleavage was found to be 0.282.

Consider G1C U64A, for which the self-cleavage was 0.236.

In the case of G1C U64C, the self-cleavage worked out at 0.179.

For G1C G28U, the self-cleavage is 0.0985.

Take G1C G28C: the self-cleavage is 0.12.

Turning to G1U A40C, the self-cleavage is 0.0668.

With G1A U49G, the self-cleavage stood at 0.13.

Take G1A U49A: the self-cleavage is 0.075.

With G1A G37U, the self-cleavage came out at 0.104.

For the variant G1A G37C, the self-cleavage came to 0.0318.

As to G1U A42G, the self-cleavage stood at 0.0976.

For G1U A42C, the self-cleavage stood at 0.0921.

In the case of G1U A42U, the self-cleavage is 0.0891.

Consider G1A C34G, for which the self-cleavage came to 0.0238.

For G1A C34U, the self-cleavage turned out to be 0.0949.

As for G1A C34A, the self-cleavage turned out to be 0.111.

For G1C C12G, the self-cleavage was determined as 0.238.

As to G1C C12U, the self-cleavage amounted to 0.252.

Take G1C C12A: the self-cleavage was 0.164.

Take G1C G17C: the self-cleavage was determined as 0.0857.

In the case of G1C G17A, the self-cleavage was found to be 0.124.

For G1C G17U, the self-cleavage stood at 0.155.

For the variant G1A G30C, the self-cleavage was found to be 0.0357.

As to G1A G30A, the self-cleavage came to 0.0887.

Turning to G1C U46C, the self-cleavage turned out to be 0.248.

Take G1A G31C: the self-cleavage was determined as 0.0308.

G1A G31A: the self-cleavage stood at 0.0627.

For the variant G1C G41A, the self-cleavage was determined as 0.19.

Take G1C G41C: the self-cleavage is 0.23.

Consider G1C C7G, for which the self-cleavage was 0.128.

As for G1C C7A, the self-cleavage was determined as 0.144.

For the variant G1C C39U, the self-cleavage amounted to 0.227.

Take G1C C39G: the self-cleavage amounted to 0.217.

As for G1U C27A, the self-cleavage was determined as 0.0657.

For G1U C27G, the self-cleavage worked out at 0.0589.

Turning to G1U A60C, the self-cleavage was 0.0797.

Take G1U C29U: the self-cleavage was 0.0573.

In the case of G1U C29G, the self-cleavage was found to be 0.0597.

Consider G1U C29A, for which the self-cleavage stood at 0.111.

As for G1C U61G, the self-cleavage turned out to be 0.271.

G1C U61C: the self-cleavage was 0.141.

Consider G1U C32U, for which the self-cleavage worked out at 0.157.

G1U C32G: the self-cleavage was found to be 0.09.

As for G1U C32A, the self-cleavage was 0.201.

G1C U67C: the self-cleavage came to 0.19.

For G1C U67A, the self-cleavage worked out at 0.193.

As to G1C C35A, the self-cleavage worked out at 0.069.

For the variant G1C C35U, the self-cleavage was 0.167.

Turning to G1C C35G, the self-cleavage was found to be 0.161.

In the case of G1U C7G, the self-cleavage is 0.127.

G1U C7A: the self-cleavage worked out at 0.0722.

With G1A G56C, the self-cleavage was determined as 0.0841.

In the case of G1A G56A, the self-cleavage was determined as 0.0858.

With G1A G56U, the self-cleavage stood at 0.103.

Consider G1U C22G, for which the self-cleavage amounted to 0.0638.

In the case of G1U C22U, the self-cleavage is 0.102.

For the variant G1U C22A, the self-cleavage is 0.0628.

Turning to G1C A23U, the self-cleavage stood at 0.222.

G1C A23C: the self-cleavage came to 0.25.

Turning to G1C A23G, the self-cleavage was determined as 0.149.

Consider G1A C6G, for which the self-cleavage stood at 0.0647.

With G1A C6A, the self-cleavage came out at 0.0849.

Turning to G1A C6U, the self-cleavage amounted to 0.105.

For the variant G1A G25C, the self-cleavage worked out at 0.0807.

In the case of G1A C7G, the self-cleavage turned out to be 0.0966.

As for G1A A13C, the self-cleavage came to 0.0638.

Turning to G1A A13U, the self-cleavage was 0.0681.

Consider G1A A13G, for which the self-cleavage was determined as 0.0336.

As for G1A G11A, the self-cleavage came out at 0.136.

Regarding G1A G11U, the self-cleavage was 0.0575.

For the variant G1A C22U, the self-cleavage worked out at 0.0977.

In the case of G1C C66U, the self-cleavage was determined as 0.172.

Regarding G1C C66A, the self-cleavage was 0.226.

As for G1C C24A, the self-cleavage was 0.0947.

With G1A A51U, the self-cleavage came out at 0.136.

As for G1A A23U, the self-cleavage stood at 0.184.

With G1A G5C, the self-cleavage was determined as 0.0678.

In the case of G1A G5A, the self-cleavage was 0.15.

For G1A G5U, the self-cleavage was 0.0571.

G1C U43G: the self-cleavage turned out to be 0.205.

With G1C U43C, the self-cleavage was found to be 0.245.

Turning to G1C U43A, the self-cleavage stood at 0.202.

Take G1U A59U: the self-cleavage is 0.114.

In the case of G1U A59G, the self-cleavage was 0.148.

In the case of G1U A59C, the self-cleavage came out at 0.0892.

For the variant G1A C27U, the self-cleavage stood at 0.0438.

As to G1A C27A, the self-cleavage was 0.0748.

Consider G1A U44A, for which the self-cleavage was found to be 0.0757.

With G1A U44C, the self-cleavage was determined as 0.135.

On to G1U A52G, for which the self-cleavage was 0.167.

With G1U A52U, the self-cleavage was 0.129.

G1U A10U: the self-cleavage came out at 0.127.

With G1A G3C, the self-cleavage was determined as 0.0286.

As for G1C A59G, the self-cleavage worked out at 0.26.

In the case of G1C A59U, the self-cleavage came to 0.147.

Turning to G1C A59C, the self-cleavage was 0.27.

As for G1A A60C, the self-cleavage is 0.0326.

G1C G19A: the self-cleavage amounted to 0.086.

G1U A51U: the self-cleavage turned out to be 0.148.

Turning to G1U A51C, the self-cleavage came out at 0.114.

Consider G1U A51G, for which the self-cleavage amounted to 0.126.

Turning to G1C C29G, the self-cleavage came out at 0.106.

Take G1C C29U: the self-cleavage was 0.105.

In the case of G1U C34G, the self-cleavage turned out to be 0.123.

Regarding G1U C34A, the self-cleavage is 0.184.

For G1U A8C, the self-cleavage was 0.0263.

Regarding G1U A8U, the self-cleavage amounted to 0.0804.

With G1C A40C, the self-cleavage is 0.231.

Regarding G1C A40G, the self-cleavage is 0.268.

For G1A C66G, the self-cleavage is 0.0767.

As to G1C A8C, the self-cleavage amounted to 0.221.

As to G1C A8U, the self-cleavage came out at 0.227.

On to G1C U44G, for which the self-cleavage came to 0.151.

For the variant G1C U44A, the self-cleavage was 0.231.

With G1U C39A, the self-cleavage was determined as 0.123.

As for G1U C39U, the self-cleavage turned out to be 0.0961.

For G1A G4C, the self-cleavage is 0.0471.

For the variant G1A G4A, the self-cleavage stood at 0.28.

Turning to G1U C12G, the self-cleavage is 0.106.

On to G1U C12U, for which the self-cleavage came to 0.124.

For G1A A8U, the self-cleavage stood at 0.0637.

On to G1A U55A, for which the self-cleavage was determined as 0.059.

For G1A U55C, the self-cleavage came to 0.0976.

Consider G1U C18G, for which the self-cleavage is 0.115.

For G1U C18U, the self-cleavage is 0.104.

Consider G1A G65U, for which the self-cleavage is 0.106.

As for G1A G65A, the self-cleavage stood at 0.0429.

As for G1A G65C, the self-cleavage amounted to 0.0479.

G1A G47U: the self-cleavage amounted to 0.104.

In the case of G1A G47C, the self-cleavage is 0.0423.

As to G1A G47A, the self-cleavage was 0.104.

Turning to G1C C22G, the self-cleavage amounted to 0.0703.

G1C C22A: the self-cleavage stood at 0.0757.

With G1C G48U, the self-cleavage came to 0.241.

Take G1C G30C: the self-cleavage was found to be 0.174.

In the case of G1C G30A, the self-cleavage was 0.192.

Regarding G1A C18U, the self-cleavage was 0.0601.

Regarding G1A C18G, the self-cleavage amounted to 0.0371.

As to G1A C18A, the self-cleavage was determined as 0.0308.

Regarding G1U C9G, the self-cleavage was 0.233.

On to G1U C9U, for which the self-cleavage came out at 0.219.

With G1U C54A, the self-cleavage amounted to 0.116.

For G1U C54G, the self-cleavage worked out at 0.099.

For G1A A42G, the self-cleavage came out at 0.0249.

Take G1C U69A: the self-cleavage amounted to 0.182.

G1A C24G: the self-cleavage came to 0.163.

For G1A C24U, the self-cleavage was determined as 0.0626.

In the case of G1A C24A, the self-cleavage came out at 0.0536.

As to G1A C35A, the self-cleavage came out at 0.0188.

In the case of G1A C35U, the self-cleavage is 0.0752.

Take G1A U62A: the self-cleavage amounted to 0.0846.

With G1A G58A, the self-cleavage was 0.0724.

Consider G1A G58C, for which the self-cleavage is 0.126.

Turning to G1U C24G, the self-cleavage stood at 0.0268.

For G1A U21G, the self-cleavage was determined as 0.0454.

Consider G1A U21A, for which the self-cleavage is 0.132.

For the variant G1C C9U, the self-cleavage amounted to 0.246.

As to G1C C9G, the self-cleavage was found to be 0.203.

For G1C A42C, the self-cleavage came out at 0.274.

On to G1C A42G, for which the self-cleavage turned out to be 0.152.

For G1A C33U, the self-cleavage is 0.0123.

Turning to G1A C33G, the self-cleavage stood at 0.0474.
